Literature values, collected in article PMC10178616.

Target: AGR2 (Homo sapiens) (UniProt O95994)

Q: Which Kd does the source give for AGR2 (from UniProt O95994) here?
A: Its Kd is 8.83 µM.
